Tests used:
Test in all cases: A265 increase (ascorbate formation), nonlinear regression
[1] = system: T1, ZmDHAR2; type: biochemical, Zea mays; conditions: 0.42 mM GSH; DHA 0.013-1.677 mM; 90 mM potassium phosphate pH 6.5, 25 C; read-out: Kinetic constants / K m ^DHA
T1 construct: gene DHAR2; clade I
From the text: A265 increase (ascorbate formation), nonlinear regression on ZmDHAR2

[2] = substrate: O=C1O[C@H]([C@@H](O)CO)C(=O)C1=O; type: biochemical, Selaginella moellendorffii; conditions: 0.42 mM GSH, DHA 0.013-1.677 mM, 90 mM potassium phosphate pH 6.5, 25 C
From the text: A265 increase (ascorbate formation), nonlinear regression on SmDHAR1

[3] = substrate: O=C1O[C@H]([C@@H](O)CO)C(=O)C1=O; type: biochemical, Picea abies; conditions: 0.42 mM GSH, DHA 0.013-1.677 mM, 90 mM potassium phosphate pH 6.5, 25 C
From the text: A265 increase (ascorbate formation), nonlinear regression on PabDHAR2

O=C1O[C@H]([C@@H](O)CO)C(=O)C1=O [dehydroascorbate]
Km [1]: 68 ± 9 µM

B1: SmDHAR1 (Selaginella moellendorffii) (protein)
chain: MAVATTEAVEVLVKAANGDPSRLGDCPFSQRVLLTLEEKGIPYNSKFVDMENKPAWFLEANPEGKVPVVKDDGKWVADSDVITQLIETKFPSPSLVTPPEKSSVGSKIFSSFVKFLKSKDPSDGSEAALLEELKTLDEYLAKNGPFVNGSNISAVDLSLAPKLYHLKIALGHYKQWSVPQNLTNLNSYMEALFKRESFQKTMAPAEVVVKGWAKHLSA
notes: full length without predicted signal peptide, N-terminal 6xHis (pET-30a), E. coli BL21(DE3), Ni Sepharose; cytosolic, clade I
Km [2]: 115 ± 4 µM

B2: PabDHAR2 (Picea abies) (protein)
chain: MSDLEIFSKAAPGTGSPSKERGDCPFSQRIFLELEELGLPYTATYIQEGADKPHWFMEKNPSGLMPVLRDRETWIQDSDKIAQYLDDHYAENTLRTQVEFKNVGSKIFPIFTKWLQCKDPNSACRDEFVDELVGFDRHLQNHGPYIAGKRPTDSDFALAPKLRHARVALAHFMDFQFPRELGALQNYMNRMESRESFEKTNYPNDMIIQGWRAKFNLPEKIANAS
notes: full length without predicted signal peptide, N-terminal 6xHis (pET-30a), E. coli BL21(DE3), Ni Sepharose; cytosolic, clade II, five exons
Km [3]: 118 ± 1 µM

— publication PMC4687524, “Molecular Properties and Functional Divergence of the Dehydroascorbate Reductase Gene Family in Lower and Higher Plants” (PLoS ONE, 2015)
